Data as given in PMC6426602, “Structure of Vibrio FliL, a New Stomatin-like Protein That Assists the Bacterial Flagellar Motor Function” (mBio, 2019).

B1: periplasmic region of polar FliL (FliLPeri) of Vibrio alginolyticus (domain or fragment, UniProt A0A7H8DP68 41-167, looked up)
chain: GSDEPAQAESSQQAQVKASDAAPIAYVNLPQAFVFNVTGDSRDRLVQIKAQLMVRGAENEELARYHSPLIESSMLSTFASATVDQLRSPTGRVELRDRASEDIKAALNAAVGKPVIEKVLFTDFVIQ
notes: polar flagellar FliL of Vibrio alginolyticus, periplasmic region, residues 41 to 167; Residues 41-57 are invisible in the map; also called His6-FliL_(Peri); copies: 10
B2: FliLC, trypsin-resistant core of the periplasmic region of polar FliL (residues 58 to 167) (domain or fragment, Vibrio alginolyticus, UniProt A0A7H8DP68 58-167, looked up)
chain: ASDAAPIAYVNLPQAFVFNVTGDSRDRLVQIKAQLMVRGAENEELARYHSPLIESSMLSTFASATVDQLRSPTGRVELRDRASEDIKAALNAAVGKPVIEKVLFTDFVIQ
notes: polar flagellar FliL of Vibrio alginolyticus, fragment of residues 58 to 167 left after trypsin digestion of FliLPeri; also called FliL_(58-167)

How the values were obtained:
[1] = target: the molecule itself; assay: crystal structure; FliLPeri crystal, space group P4(2)2(1)2, 3.4 Å, 20 molecules in the asymmetric unit; sitting drop at 20°C, protein 70 mg/ml in 20 mM Tris-HCl pH 8.0, 150 mM NaCl; reservoir 0.1 M sodium acetate pH 6.0, 25% PEG 200, 0.15 M CaCl2, 1.4% EtOH
[2] = target: the molecule itself; assay: crystal structure; FliLC crystal, space group P6(1), 2.1 Å, two molecules in the asymmetric unit; sitting drop at 20°C, protein 10 mg/ml in 20 mM Tris-HCl pH 8.0, 150 mM NaCl; reservoir 0.1 M sodium acetate pH 4.4, 22.5% PEG 4000, 0.2 M ammonium sulfate

Protein | stoichiometry N [1] | binding result [2]
B1 | 10 subunits in a ring | –
B2 | – | binds
